Assay [1] concerns the target human IgE (human) (UniProt P01854). In words: ELISA-based potency on human IgE; GI-301 100 mg/mL, 250 mM proline, histidine/HCl pH 6.7, 20 mg/mL methionine; after 35° C., 200 rpm, 14 days; n=2. (In general: An ELISA detects its analyte on a solid surface through an enzyme-linked reagent.)
For assay [2] the target is unchanged. In words: ELISA-based potency on human IgE; GI-301 100 mg/mL, 250 mM proline, histidine/HCl pH 6.7, no additive; after 35° C., 200 rpm, 5 days; n=2.
For assay [3] the target is unchanged. As to the kind of experiment: ELISA-based potency on human IgE; GI-301 100 mg/mL, 250 mM proline, histidine/HCl pH 6.7, 20 mg/mL methionine; after 35° C., 200 rpm, 5 days; n=2.
Assay [4] shares this target. In words: ELISA-based potency on human IgE; GI-301 100 mg/mL, 250 mM proline, histidine/HCl pH 6.7, 0.1 w/v % Tween 80 and 20 mg/mL methionine; after 35° C., 200 rpm, 5 days; n=2.
The target is the same in assay [5]. As to the kind of experiment: ELISA-based potency on human IgE; GI-301 100 mg/mL, 250 mM proline, histidine/HCl pH 6.7, no additive; after light stress (7.5 hours, 750 W/m^2); n=2.
For assay [6] the target is unchanged. As to the kind of experiment: ELISA-based potency on human IgE; GI-301 100 mg/mL, 250 mM proline, histidine/HCl pH 6.7, 0.1 w/v % Tween 80 and 20 mg/mL methionine; after 35° C., 200 rpm, 14 days; n=2.
The target is the same in assay [7]. As to the kind of experiment: ELISA relative potency; GI-301 dialyzed into 10 mM Tris/HCl pH 7.4, 250 mM mannitol.
Assay [8] shares this target. As to the kind of experiment: ELISA-based potency on human IgE; GI-301 100 mg/mL, 250 mM proline, histidine/HCl pH 6.7, 20 mg/mL methionine; after light stress (7.5 hours, 750 W/m^2); n=2.
Assay [9] shares this target. As to the kind of experiment: ELISA relative potency; GI-301 dialyzed into 10 mM His/HCl pH 6.7, 250 mM mannitol.
For assay [10] the target is unchanged. As to the kind of experiment: ELISA relative potency; GI-301 dialyzed into 10 mM His/HCl pH 6.7, 250 mM trehalose.
Assay [11] has the same target. As to the kind of experiment: ELISA-based potency on human IgE; GI-301 100 mg/mL, 250 mM proline, histidine/HCl pH 6.7, 0.1 w/v % Tween 80; after 35° C., 200 rpm, 14 days; n=2.
Assay [12] has the same target. As to the kind of experiment: ELISA relative potency; GI-301 dialyzed into 10 mM His/HCl pH 6.7, 250 mM proline.
Assay [13] has the same target. In words: ELISA-based potency on human IgE; GI-301 100 mg/mL, 250 mM proline, histidine/HCl pH 6.7, 0.1 w/v % Tween 80; after light stress (7.5 hours, 750 W/m^2); n=2.
The target is the same in assay [14]. As to the kind of experiment: ELISA-based potency on human IgE; GI-301 100 mg/mL, 250 mM proline, histidine/HCl pH 6.7, 0.1 w/v % Tween 80; after 35° C., 200 rpm, 5 days; n=2.
Assay [15] shares this target. As to the kind of experiment: ELISA-based potency on human IgE; GI-301 100 mg/mL, 250 mM proline, histidine/HCl pH 6.7, 0.1 w/v % Tween 80 and 20 mg/mL methionine; after light stress (7.5 hours, 750 W/m^2); n=2.
For assay [16] the target is unchanged. In words: ELISA-based potency on human IgE; GI-301 100 mg/mL, 250 mM proline, histidine/HCl pH 6.7, no additive; after 35° C., 200 rpm, 14 days; n=2.
Assay [17] has the same target. In words: ELISA relative potency; GI-301 dialyzed into 10 mM Tris/HCl pH 7.4, 250 mM proline.

Sequence of UniProt P01854 (P01854 other isoform, or with tags, fused parts or gaps): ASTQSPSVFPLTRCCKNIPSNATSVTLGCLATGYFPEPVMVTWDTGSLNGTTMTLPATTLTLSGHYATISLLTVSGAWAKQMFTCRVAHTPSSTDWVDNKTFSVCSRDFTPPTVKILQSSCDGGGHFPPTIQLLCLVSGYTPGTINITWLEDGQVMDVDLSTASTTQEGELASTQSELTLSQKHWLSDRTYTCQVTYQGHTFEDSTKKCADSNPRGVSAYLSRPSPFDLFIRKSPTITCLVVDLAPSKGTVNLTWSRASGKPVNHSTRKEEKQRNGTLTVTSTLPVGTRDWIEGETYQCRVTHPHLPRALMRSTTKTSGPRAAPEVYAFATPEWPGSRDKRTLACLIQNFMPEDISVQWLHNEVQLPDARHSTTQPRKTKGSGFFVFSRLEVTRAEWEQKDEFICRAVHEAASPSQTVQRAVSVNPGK

B1: GI-301 (fusion protein dimer comprising FcεRIα ECD and modified Fc region) (Fc fusion, not shown: small tags and cut ends)
chain: VPQKPKVSLNPPWNRIFKGENVTLTCNGNNFFEVSSTKWFHNGSLSEETNSSLNIVNAKFEDSGEYKCQHQQVNESEPVYLEVFSDWLLLQASAEVVMEGQPLFLRCHGWRNWDVYKVIYYKDGEALKYWYENHNISITNATVEDSGTYYCTGKVWQLDYESEPLNITVIKAPREKYWLQSHTQPLGVFLFPPKPKDTLMISRTPEVTCVVVDVSQEDPEVQFNWYVDGVEVHNAKTKPREEQFNSTYRVVSVLTVLHQDWLNGKEYKCKVSNKGLPSSIEKTISKAKGQPREPQVYTLPPSQEEMTKNQVSLTCLVKGFYPSDIAVEWESNGQPENNYKTTPPVLDSDGSFFLYSRLTVDKSRWQEGNVFSCSVMHEALHNHYTQKSLSLSLGK
In the case of B1, the relative potency by ELISA with human IgE (human) [1] worked out at 74.2%; with human IgE (human) [2], 79.7%; with human IgE (human) [3] it was 113%; in the assay with human IgE (human) [4] it was 94.3%; in the assay with human IgE (human) [5] it was 110%; in the assay with human IgE (human) [6], 111%. In addition, the relative potency by ELISA with human IgE (human) [8] was 112%; with human IgE (human) [11], 80.4%; in the assay with human IgE (human) [13] it was 110%; with human IgE (human) [14], 92.1%; with human IgE (human) [15], 111%; with human IgE (human) [16], 105%. The potency ELISA [%] (relative potency) in the assay with human IgE (human) [7] is 92%; in the assay with human IgE (human) [9] it was 98%; with human IgE (human) [10], 103%; in the assay with human IgE (human) [12], 101%; with human IgE (human) [17] it was 106%.

Source of the values: patent publication US20240148829A1.
